Laboratory results as given in article PMC6889490, “General structural features that regulate integrin affinity revealed by atypical αVβ8” (Nature Communications, 2019).
“Also recorded” adds a separate entry of the source. One block for each molecule: values may come before it. Ends that are not written are not given here. * marks the point of attachment. FITC = O=C1OC2(c3ccc(O)cc3Oc3cc(O)ccc32)c2ccc(NC(=S)*)cc21; Ahx = NCCCCCC(=O)O

What was measured:
[1] = target: αVβ6-WT; assay: Fluorescence polarization saturation binding, αVβ6-WT; conditions: 2, 5 and 10 nM probe, repeat1 and repeat2, 2 replicates each
Excerpt: As in statistical models for determining p values, the fit assumes that errors are independent and normally distributed. The reported fit minimizes the sum of the squared errors. […] Source data for a, b are provided as a Source Data file. c Representative negative stain class averages of mutant or WT integrin headpieces alone (upper panels) or complexed with pro-TGF-β1. Representative 2:1 pro-TGF-β1:integrin class averages are shown.

[2] = target: T1, αVβ8-mut6 headpiece (Homo sapiens, UniProt P06756+P26012, K165T/M430C/N161D/N162D/V301C); assay: Negative stain EM headpiece opening, αVβ8-mut6; conditions: 1 mM Mn2+/0.2 mM Ca2+
T1 construct: residues 1–594 of the αV-subunit and 1–456 of the β8-subunit; made in house; host or cells: Expi293 cells (transient)
Excerpt: Fig. 7 Regulation of ligand-binding affinity by atypical and typical residues in αVβ8 and αVβ6. a Mutations corresponding to sequence exchanges between αVβ8 (black) and αVβ6 (red) and effect on affinity for FITC-labeled TGF-β3 ligand peptide (GRGDLGRLKK) in presence of Mg^2+ and Mn^2+. […] As in statistical models for determining p values, the fit assumes that errors are independent and normally distributed. The reported fit minimizes the sum of the squared errors. […] Source data for a, b are provided as a Source Data file. c Representative negative stain class averages of mutant or WT integrin headpieces alone (upper panels) or complexed with pro-TGF-β1. Representative 2:1 pro-TGF-β1:integrin class averages are shown. The WT integrin class averages shown for comparison are previously published. d, e Residues in regions of βI domain allostery with unusual properties in αVβ8 (d) are compared to counterparts in αVβ6 (e). […] Mn^2+: 0.37 [0.18, 0.55] […]
αVβ8-mut3 or αVβ8-mut6 (15 μg) were mixed with pro-TGF-β1 at molar ratio 1.5:1 in 50 μl of HBS buffer containing 1 mM Mn^2+/0.2 mM Ca^2+ for 30 min and injected in a 24 ml Superdex 75 gel filtration column pre-equilibrated with HBS buffer (20 mM HEPEs, pH 7.5, 150 mM NaCl, 1 mM Mn^2+/0.2 mM Ca^2+). The 2:2, 2:1 complexes and unbound αVβ8 and pro-TGF-β1 were well separated. […]

[3] = target: T2, αVβ8-WT headpiece (Homo sapiens, UniProt P06756+P26012, M430C/V301C); conditions: Mn2+; negative stain EM; cited from earlier work
T2 construct: residues 1–594 of the αV-subunit and 1–456 of the β8-subunit; made in house; host or cells: HEK293S GntI−/− cells

[4] = system: D8/D9 αVβ8; conditions: D8/D9 αVβ8 compared to WT; cited from earlier work
Excerpt: Mn^2+ increases affinity of αVβ6 in part by stabilizing headpiece opening. […] Results with αVβ8 were more complex. Substitution of one or both A ...

[5] = target: T3, pro-TGF-β3 peptide (Homo sapiens); assay: fluorescence polarization
T3 chain: {FITC-Ahx}-GRGDLGRLKK

[6] = target: T4, pro-TGF-β3 peptide (Homo sapiens); assay: fluorescence polarization
T4 chain: {FITC-Ahx}-GRGDLGRLKK

T1 sequence (P06756 31-624 M430C): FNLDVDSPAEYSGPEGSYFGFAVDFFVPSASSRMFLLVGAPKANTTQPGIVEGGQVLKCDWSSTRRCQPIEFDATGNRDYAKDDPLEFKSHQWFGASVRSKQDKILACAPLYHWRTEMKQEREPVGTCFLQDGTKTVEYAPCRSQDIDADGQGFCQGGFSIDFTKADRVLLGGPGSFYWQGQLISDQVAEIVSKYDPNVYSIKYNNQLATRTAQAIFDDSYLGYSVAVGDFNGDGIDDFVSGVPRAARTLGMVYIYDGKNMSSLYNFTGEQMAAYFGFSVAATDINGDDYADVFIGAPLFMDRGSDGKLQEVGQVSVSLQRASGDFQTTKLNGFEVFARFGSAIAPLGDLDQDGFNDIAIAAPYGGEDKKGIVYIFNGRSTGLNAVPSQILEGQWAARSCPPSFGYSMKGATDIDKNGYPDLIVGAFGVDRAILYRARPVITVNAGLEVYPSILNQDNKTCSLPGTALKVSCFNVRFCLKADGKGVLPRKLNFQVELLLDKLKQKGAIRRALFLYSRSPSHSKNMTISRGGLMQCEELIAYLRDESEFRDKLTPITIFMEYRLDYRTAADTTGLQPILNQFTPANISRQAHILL
T1 sequence (P26012 43-498 N161D/N162D/K165T/V301C): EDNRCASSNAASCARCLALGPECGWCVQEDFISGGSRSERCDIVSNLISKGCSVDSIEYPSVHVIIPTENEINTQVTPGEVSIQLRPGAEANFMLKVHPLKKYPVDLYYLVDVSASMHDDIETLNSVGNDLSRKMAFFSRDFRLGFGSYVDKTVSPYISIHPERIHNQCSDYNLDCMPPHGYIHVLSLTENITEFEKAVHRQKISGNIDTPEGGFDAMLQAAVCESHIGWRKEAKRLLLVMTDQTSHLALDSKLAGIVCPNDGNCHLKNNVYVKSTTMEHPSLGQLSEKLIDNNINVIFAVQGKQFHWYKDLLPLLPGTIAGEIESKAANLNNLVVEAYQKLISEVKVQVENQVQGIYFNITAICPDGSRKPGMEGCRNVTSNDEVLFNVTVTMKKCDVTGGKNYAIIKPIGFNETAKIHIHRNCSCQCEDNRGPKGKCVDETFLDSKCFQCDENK
T2 sequence (P06756 31-624 M430C): as the sequence (P06756 31-624 M430C) above
T2 sequence (P26012 43-498 V301C): as the sequence (P26012 43-498 N161D/N162D/K165T/V301C) above, with D119N, D120N, T123K counted along it

Molecule: pro-TGF-β1: Human pro-TGFβ-1 with a R249A cleavage site mutation
headpiece conformation when bound to pro-TGF-β1 [2]: remained closed; also recorded: neither mutant showed the open headpiece | headpiece conformation when bound to pro-TGF-β1 [3]: remained closed

Molecule: vitronectin: vitronectin, integrin ligand measured in cell binding in a cited study
amount of vitronectin binding to cells [4]: decreased binding of D8/D9 αVβ8 compared to WT

B2: Integrin αVβ6 headpiece headpiece (protein)
chain 1: FNLDVDSPAEYSGPEGSYFGFAVDFFVPSASSRMFLLVGAPKANTTQPGIVEGGQVLKCDWSSTRRCQPIEFDATGNRDYAKDDPLEFKSHQWFGASVRSKQDKILACAPLYHWRTEMKQEREPVGTCFLQDGTKTVEYAPCRSQDIDADGQGFCQGGFSIDFTKADRVLLGGPGSFYWQGQLISDQVAEIVSKYDPNVYSIKYNNQLATRTAQAIFDDSYLGYSVAVGDFNGDGIDDFVSGVPRAARTLGMVYIYDGKNMSSLYNFTGEQMAAYFGFSVAATDINGDDYADVFIGAPLFMDRGSDGKLQEVGQVSVSLQRASGDFQTTKLNGFEVFARFGSAIAPLGDLDQDGFNDIAIAAPYGGEDKKGIVYIFNGRSTGLNAVPSQILEGQWAARSMPPSFGYSMKGATDIDKNGYPDLIVGAFGVDRAILYRARPVITVNAGLEVYPSILNQDNKTCSLPGTALKVSCFNVRFCLKADGKGVLPRKLNFQVELLLDKLKQKGAIRRALFLYSRSPSHSKNMTISRGGLMQCEELIAYLRDESEFRDKLTPITIFMEYRLDYRTAADTTGLQPILNQFTPANISRQAHILLDCGEDNVCKPKLEVSVDSDQKKIYIGDDNPLTLIVKAQNQGEGAYEAELIVSIPLQADFIGVVRNNEALARLSCAFKTENQTRQVVCDLGNPMKAGTQLLAGLRFSVHQQSEMDTSVKFDLQIQSSNLFDKVSPVVSHKVDLAVLAAVEIRGVSSPDHVFLPIPNWEHKENPETEEDVGPVVQHIYELRNNGPSSFSKAMLHLQWPYKYNNNTLLYILHYDIDGPMNCTSDMEINPLRIKISSLQTTEKNDTVAGQGERDHLITKRDLALSEGDIHTLGCGVAQCLKIVCQVGRLDRGKSAILYVKSLLWTETFMNKENQNHSYSLKSSASFNVIEFPYKNLPIEDITNSTLVTTNVTWGIQPAPMPV
chain 2: GCALGGAETCEDCLLIGPQCAWCAQENFTHPSGVGERCDTPANLLAKGCQLNFIENPVSQVEILKNKPLSVGRQKNSSDIVQIAPQSLILKLRPGGAQTLQVHVRQTEDYPVDLYYLMDLSASMDDDLNTIKELGSRLSKEMSKLTSNFRLGFGSFVEKPVSPFVKTTPEEIANPCSSIPYFCLPTFGFKHILPLTNDAERFNEIVKNQKISANIDTPEGGFDAIMQAAVCKEKIGWRNDSLHLLVFVSDADSHFGMDSKLAGIVIPNDGLCHLDSKNEYSMSTVLEYPTIGQLIDKLVQNNVLLIFAVTQEQVHLYENYAKLIPGATVGLLQKDSGNILQLIISAYEELRSEVELEVLGDTEGLNLSFTAICNNGTLFQHQKKCSHMKVGDTASFSVTVNIPHCERRSRHIIIKPVGLGDALELLVSPECNCDCQKEVEVNSSKCHHGNGSFQCGVCACHPGHMGPRCECGEDMLSTDSCKEAPDHPSCSGRGDCYCGQCICHLSPYGNIYGPYCQCDNFSCVRHKGLLCGGNGDCDCGECVCRSGWTGEYCNCTTSTDSCVSEDGVLCSGRGDCVCGKCVCTNPGASGPTCERCPTCGDPCNSKRSCIECHLSAAGQAREECVDKCKLAGATISEEEDFSKDGSVSCSLQGENECLITFLITTDNEGKTIIHSINEKDCPKPPNIP
Kd [6]: 12 nM

Second part, the molecule after the results:

Kd ([1]; Mg fitting results, Std.Error 1.672e-10, 99% confidence interval 2.49E-09 (lower), 3.37E-09 (upper)): 2.93 nM | Kd ([1]; Mn fitting results, Std.Error 5.139e-11, 99% confidence interval 1.21E-10 (lower), 3.88E-10 (upper)): 0.254 nM
Molecule: avb6-WT

Kd [5]: 30 nM
B1: Integrin αVβ8 headpiece αV 1-594 + β8 1-456 (protein)
chain 1: B2 chain 1
chain 2: EDNRCASSNAASCARCLALGPECGWCVQEDFISGGSRSERCDIVSNLISKGCSVDSIEYPSVHVIIPTENEINTQVTPGEVSIQLRPGAEANFMLKVHPLKKYPVDLYYLVDVSASMHNNIEKLNSVGNDLSRKMAFFSRDFRLGFGSYVDKTVSPYISIHPERIHNQCSDYNLDCMPPHGYIHVLSLTENITEFEKAVHRQKISGNIDTPEGGFDAMLQAAVCESHIGWRKEAKRLLLVMTDQTSHLALDSKLAGIVVPNDGNCHLKNNVYVKSTTMEHPSLGQLSEKLIDNNINVIFAVQGKQFHWYKDLLPLLPGTIAGEIESKAANLNNLVVEAYQKLISEVKVQVENQVQGIYFNITAICPDGSRKPGMEGCRNVTSNDEVLFNVTVTMKKCDVTGGKNYAIIKPIGFNETAKIHIHRNCSCQCEDNRGPKGKCVDETFLDSKCFQCDENKCHFDEDQFSSESCKSHKDQPVCSGRGVCVCGKCSCHKIKLGKVYGKYCEKDDFSCPYHHGNLCAGHGECEAGRCQCFSGWEGDRCQCPSAAAQHCVNSKGQVCSGRGTCVCGRCECTDPRSIGRFCEHCPTCYTACKENWNCMQCLHPHNLSQAILDQCKTSCALMEQQHYVDQTSECFSSPSYLR
